Measurements taken from article PMC4282981 (Journal of immunology (Baltimore, Md. : 1950), 2014).

Molecular target: Endogenous SHP-1 (human (endogenous in YTS), UniProt P29350 1-595)
Assay: co-IP

Sequence of Endogenous SHP-1 (P29350 whole entry): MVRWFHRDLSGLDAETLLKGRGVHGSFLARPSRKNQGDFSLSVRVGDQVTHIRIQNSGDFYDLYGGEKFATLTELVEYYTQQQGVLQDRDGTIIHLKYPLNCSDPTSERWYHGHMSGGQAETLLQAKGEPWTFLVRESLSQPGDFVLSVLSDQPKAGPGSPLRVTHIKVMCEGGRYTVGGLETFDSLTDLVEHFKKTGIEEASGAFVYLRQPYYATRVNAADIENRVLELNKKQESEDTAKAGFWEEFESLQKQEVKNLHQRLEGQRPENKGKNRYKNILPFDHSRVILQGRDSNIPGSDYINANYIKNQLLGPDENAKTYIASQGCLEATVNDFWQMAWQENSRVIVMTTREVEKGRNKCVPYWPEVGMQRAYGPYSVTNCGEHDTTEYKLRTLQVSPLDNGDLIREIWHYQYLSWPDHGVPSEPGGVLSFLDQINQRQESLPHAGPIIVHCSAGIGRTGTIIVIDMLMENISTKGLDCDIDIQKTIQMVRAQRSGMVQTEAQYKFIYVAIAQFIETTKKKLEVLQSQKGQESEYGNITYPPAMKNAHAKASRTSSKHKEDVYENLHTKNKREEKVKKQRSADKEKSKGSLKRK

- fold association against 2DL1-WT: ~4 fold
B1: KIR2DL1 H36A mutant tagged with Venus at the C-terminus (receptor, UniProt P43626 22-348, looked up)
chain: HEGVHRKPSLLAHPGRLVKSEETVILQCWSDVMFEAFLLHREGMFNDTLRLIGEHHDGVSKANFSISRMTQDLAGTYRCYGSVTHSPYQVSAPSDPLDIVIIGLYEKPSLSAQLGPTVLAGENVTLSCSSRSSYDMYHLSREGEAHERRLPAGPKVNGTFQADFPLGPATHGGTYRCFGSFHDSPYEWSKSSDPLLVSVTGNPSNSWPSPTEPSSKTGNPRHLHILIGTSVVIILFILLFFLLHRWCSNKKNAAVMDQESAGNRTANSEDSDEQDPQEVTYTQLNHCVFTQRKITRPSQRPKTPPTDIIVYTELPNAESRSKVVSCP
